Results on 3 molecules are retold here after article PMC6458997.

Series [1] concerns the target T1, AimR (SPbeta) (Bacillus subtilis phage SPbeta (cloned …, UniProt O31927 1-386)).
T1 sequence: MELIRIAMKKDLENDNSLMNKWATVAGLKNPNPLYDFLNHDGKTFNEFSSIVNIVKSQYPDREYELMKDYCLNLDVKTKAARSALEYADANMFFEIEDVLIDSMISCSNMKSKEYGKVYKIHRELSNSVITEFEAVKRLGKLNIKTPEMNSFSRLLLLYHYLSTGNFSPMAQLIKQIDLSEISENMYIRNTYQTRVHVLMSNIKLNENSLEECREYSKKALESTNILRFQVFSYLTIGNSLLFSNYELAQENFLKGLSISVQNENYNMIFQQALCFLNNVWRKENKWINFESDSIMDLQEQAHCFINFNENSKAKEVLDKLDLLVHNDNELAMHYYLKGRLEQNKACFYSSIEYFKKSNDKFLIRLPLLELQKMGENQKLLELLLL
Nature of the series: X-ray crystallography; 2.2 A; 200 mM MgCl2, pH 7.5; AimR:DNA 2:1; EMSA: 50 mM HEPES pH 7.5, 5 mM MgCl2, 75 mM NaCl, 0.5 mM EDTA; 0.4 uM DNA, 4 uM AimR; 10 min at room temperature; 8% PAGE in TBE at 4 C or agarose in TAE at room temperature. As to conditions: protein: recombinant; tags: N-terminal 6xHis-TEV, cleaved; chain copies: 2. (In EMSA bound probe runs differently from free probe, usually more slowly.)

The target in series [2] is T1, AimR (SPbeta). Nature of the series: EMSA; apo; EMSA: 50 mM HEPES pH 7.5, 5 mM MgCl2, 75 mM NaCl, 0.5 mM EDTA; 0.4 uM DNA, 4 uM AimR; 10 min at room temperature; 8% PAGE in TBE at 4 C or agarose in TAE at room temperature. The conditions noted are these: protein: recombinant; tags: N-terminal 6xHis-TEV, cleaved; chain copies: 2.
The target of the next series is T2, AimR (phi3T) (Bacillus phage phi3T, UniProt P0DOE3 1-378).
T2 sequence: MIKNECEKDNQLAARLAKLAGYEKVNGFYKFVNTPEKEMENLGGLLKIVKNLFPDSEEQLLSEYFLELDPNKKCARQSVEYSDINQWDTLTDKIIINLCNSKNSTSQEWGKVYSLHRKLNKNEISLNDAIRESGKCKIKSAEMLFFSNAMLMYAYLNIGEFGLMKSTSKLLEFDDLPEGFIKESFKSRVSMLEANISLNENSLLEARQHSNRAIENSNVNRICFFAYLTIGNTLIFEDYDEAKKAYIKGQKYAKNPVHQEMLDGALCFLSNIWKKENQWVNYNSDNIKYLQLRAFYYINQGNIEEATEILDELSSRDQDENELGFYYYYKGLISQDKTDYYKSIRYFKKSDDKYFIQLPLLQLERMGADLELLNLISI
Kind of series: EMSA; EMSA: 50 mM HEPES pH 7.5, 5 mM MgCl2, 75 mM NaCl, 0.5 mM EDTA; 0.4 uM DNA, 4 uM AimR; 10 min at room temperature; 8% PAGE in TBE at 4 C or agarose in TAE at room temperature. As to conditions: protein: recombinant; tags: N-terminal 6xHis; same purification protocol as SPbeta AimR.

B1: crystal operator 43 bp (dsDNA)
DNA 1: TTGATCACTAGATGTTATTAAAACCTAATATTTAAGTGATGGC
DNA 2: GCCATCACTTAAATATTAGGTTTTAATAACATCTAGTGATCAA
On to B1, for which the binding result in the series with AimR (SPbeta) [1] was “binds”.

B2: SPbeta operator WT 45 bp (dsDNA)
DNA 1: GTTGATCACTAGATGTTATTAAAACCTAATATTTAAGTGATGGCC
DNA 2: GGCCATCACTTAAATATTAGGTTTTAATAACATCTAGTGATCAAC
Consider B2, for which, in the series with AimR (SPbeta) [2], the binding result is listed as “binds”.

B3: phi3T operator 37 bp (dsDNA)
DNA 1: ATGTTCCAGAAATTCAAAAATCAAAAAATAAGAACAT
DNA 2: ATGTTCTTATTTTTTGATTTTTGAATTTCTGGAACAT
For the molecule B3, the binding result with AimR (phi3T) was “binds”.
